The target in the experiment is GFP-VIM (lens vimentin fused to green fluorescence protein) (UniProt P08670). Briefly: FRET or BRET; FRET acceptor photobleaching by confocal laser scanning microscopy in living HeLa cells, 48 h after co-transfection; GFP fusion as donor, RFP fusion as acceptor; RFP bleached at 543 nm for 45 s in a region of interest or a whole cell; E=1 – F(GFP-min)/F(GFP-max).
GFP-VIM (lens vimentin fused to green fluorescence protein), sequence (P08670 2-466): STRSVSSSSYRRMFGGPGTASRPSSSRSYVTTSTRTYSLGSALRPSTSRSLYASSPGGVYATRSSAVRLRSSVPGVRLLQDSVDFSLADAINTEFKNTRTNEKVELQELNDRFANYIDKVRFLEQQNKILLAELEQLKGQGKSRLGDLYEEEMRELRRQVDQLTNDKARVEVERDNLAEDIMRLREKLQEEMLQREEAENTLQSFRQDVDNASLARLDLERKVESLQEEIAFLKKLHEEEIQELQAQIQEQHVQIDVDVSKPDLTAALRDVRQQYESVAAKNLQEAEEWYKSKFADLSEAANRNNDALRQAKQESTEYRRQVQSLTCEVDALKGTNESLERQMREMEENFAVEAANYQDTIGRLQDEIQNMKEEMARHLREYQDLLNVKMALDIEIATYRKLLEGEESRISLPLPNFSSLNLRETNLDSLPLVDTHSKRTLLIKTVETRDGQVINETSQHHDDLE

RFP-αB (wild-type αB-crystallin fused to red fluorescence protein), sequence (P02511 whole entry, the tested form may be a part): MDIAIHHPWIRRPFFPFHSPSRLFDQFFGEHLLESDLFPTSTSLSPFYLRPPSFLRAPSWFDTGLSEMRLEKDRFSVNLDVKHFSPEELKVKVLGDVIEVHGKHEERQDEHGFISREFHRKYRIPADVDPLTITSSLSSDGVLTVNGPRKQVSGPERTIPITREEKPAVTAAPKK

Take “RFP-αB (wild-type αB-crystallin fused to red fluorescence protein) (from UniProt P02511 1-175) (natural protein)”: the FRET efficiency (one representative cell) was determined as 9.5%.

The values above are taken from PMC2447818.
